According to patent US20260151494A1 (ARO BIOTHERAPEUTICS, published 2026):

Tests used:
[1] = biological target: T1, human CD71 extracellular domain (CD71-ECD) (human, UniProt P02786 89-760); test: primary ELISA; further: test concentration or dose not given here
T1 construct: also called hCD71; human CD71-ECD

[2] = biological target: T1, human CD71 extracellular domain …; test: primary ELISA, RLU ratio to HSA
[3] = biological target: human CD71 on cells (SKBR3; SW620-rLuc-KRAS) (human, UniProt P02786 1-760); test: cell-based or functional assay
Chain of human CD71 on cells (SKBR3; SW620-rLuc-KRAS) (P02786 whole entry): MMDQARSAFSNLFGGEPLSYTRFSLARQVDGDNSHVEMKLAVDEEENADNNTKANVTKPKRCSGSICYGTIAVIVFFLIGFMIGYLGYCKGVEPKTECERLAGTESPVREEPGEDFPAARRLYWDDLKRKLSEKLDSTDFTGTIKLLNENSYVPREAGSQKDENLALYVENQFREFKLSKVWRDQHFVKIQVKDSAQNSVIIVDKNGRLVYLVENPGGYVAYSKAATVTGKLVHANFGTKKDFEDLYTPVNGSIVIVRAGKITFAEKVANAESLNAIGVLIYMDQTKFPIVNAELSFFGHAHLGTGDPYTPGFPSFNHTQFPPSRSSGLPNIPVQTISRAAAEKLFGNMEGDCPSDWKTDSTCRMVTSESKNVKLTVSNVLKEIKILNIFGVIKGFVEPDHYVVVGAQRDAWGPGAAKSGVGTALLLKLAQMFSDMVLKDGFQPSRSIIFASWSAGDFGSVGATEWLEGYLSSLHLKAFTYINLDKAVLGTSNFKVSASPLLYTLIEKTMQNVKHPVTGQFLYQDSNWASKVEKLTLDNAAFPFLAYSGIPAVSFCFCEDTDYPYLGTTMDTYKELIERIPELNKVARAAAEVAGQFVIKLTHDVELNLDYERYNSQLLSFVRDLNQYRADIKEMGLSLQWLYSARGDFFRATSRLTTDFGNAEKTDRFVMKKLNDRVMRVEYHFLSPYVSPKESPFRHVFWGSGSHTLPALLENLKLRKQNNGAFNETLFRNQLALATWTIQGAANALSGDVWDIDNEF

T1 sequence (P02786 89-760): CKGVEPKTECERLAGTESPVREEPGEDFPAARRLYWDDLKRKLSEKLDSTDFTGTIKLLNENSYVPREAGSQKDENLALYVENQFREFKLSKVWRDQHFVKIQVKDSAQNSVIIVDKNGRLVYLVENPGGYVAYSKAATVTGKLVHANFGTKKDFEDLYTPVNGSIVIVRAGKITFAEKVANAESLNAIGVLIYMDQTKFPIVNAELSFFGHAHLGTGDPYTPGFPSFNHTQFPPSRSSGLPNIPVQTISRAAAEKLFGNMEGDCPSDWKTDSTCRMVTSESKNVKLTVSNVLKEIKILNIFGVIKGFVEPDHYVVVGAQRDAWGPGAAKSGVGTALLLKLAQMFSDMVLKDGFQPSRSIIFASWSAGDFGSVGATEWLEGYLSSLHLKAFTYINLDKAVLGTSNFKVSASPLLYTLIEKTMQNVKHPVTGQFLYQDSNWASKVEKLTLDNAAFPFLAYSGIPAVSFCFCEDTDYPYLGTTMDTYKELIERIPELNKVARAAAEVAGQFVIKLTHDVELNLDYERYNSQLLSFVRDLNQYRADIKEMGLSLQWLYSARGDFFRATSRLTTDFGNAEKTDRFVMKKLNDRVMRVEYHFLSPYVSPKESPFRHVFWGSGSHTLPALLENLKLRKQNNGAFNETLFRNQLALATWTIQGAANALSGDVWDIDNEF

| RLU [1] [RLU] | hCD71:HSA [2] | CTG EC50 (CellTiter-Glo luminescent assay, SKBR3 cells, 72 h) [3] [nM] | Binder |
| --- | --- | --- | --- |
| 3.15e+06 | 256 |  | CD71-binding FN3 domain SEQ ID NO: 314 (designed binder) MGSLPAPKNLVVSRVTEDSARLSWTAPDAAFDSFEIGYFENLYLGEAIVLTVPGSERSYDLTGLKPGTEYWVQIGGVKGGNWSAPLSAIFTT |
| 3.78e+06 | 664 |  | CD71-binding FN3 domain SEQ ID NO: 273 (designed binder) MLPAPKNLVVSRVTEDSARLSWTAPDAAFDSFEISYWEHTFNGEAIILFVPGSERSYDLTGLKPGTEYYVTIGGVKGGAWSPPLWAEFTT |
| 3.72e+06 | 39 |  | CD71-binding FN3 domain SEQ ID NO: 240 (designed binder) MSLPAPKNLVVSRVTEDSARLSWTAPDAAFDSFHIWYFEKANEGEAIPLVVPGSERSYDLTGLKPGTEYDVDIGGVKGGAWSIPLGARFTT |
| 1.86e+06 | 212 |  | CD71-binding FN3 domain SEQ ID NO: 303 (designed binder) MSLPAPKNLVVSRVTEDSARLSWTAPDAAFDSFWIEYWEGWKSGEAIVLTVPGSERSYDLTGLKPGTEYRVHIWGVKGGIVSWPLSAIFTT |
| 1.7e+06 | 131 |  | CD71-binding FN3 domain SEQ ID NO: 332 (designed binder) MSLPAPKNLVVSRVTEDSARLSWTAPDAAFDSFEIGYWEGPGGGEAIILVVPGSERSYDLTGLKPGTEYYVQIGGVKGGDWSTPLWATFTT |
| 3.75e+06 | 377 |  | CD71-binding FN3 domain SEQ ID NO: 245 (designed binder) MSLPAPKNLVVSRVTEDSARLSWTAPDAAFDSFEISYWEHTFNGEAIILFVPGSERSYDLTGLKPGTEYYVTIGGVKGGAWSPPLWAHFTT |
| 3.12e+06 | 92 |  | CD71-binding FN3 domain SEQ ID NO: 267 (designed binder) MSLPAPKNLVVSRVTEDSARLSWTAPDAAFDSFEISYWEHTFNGEAIILFVPGSERSYDLTGLKPGTEYYVTIGGVKGGAWSPPLWAEFTT |
|  |  | 53.4 | CD71-binding FN3 domain of SEQ ID NO: 347 (designed binder) MLPAPKNLVVSRVTEDSARLSWTAPDAAFDSFFIGYLEPQPPGEAIGLFVPGSERSYDLTGLKPGTEYNVTIQGVKGGFPSEPLKAAFTT |
|  |  | 0.4 | CD71-binding FN3 domain of SEQ ID NO: 445 (designed binder) MLPAPKNLVVSRVTEDSARLSWTAPDAAFDSFFIGYLEPQPPGEAIHLFVPGSERSYDLTGLKPGTEYNVTIQGVKGGFPSDPLVASFTT |
|  |  | 5.8 | CD71-binding FN3 domain of SEQ ID NO: 410 (designed binder) MLPAPKNLVVSRVTEDSARLSWTAPDAAFDSFFIGYLEPQPPGEAIALWVPGSERSYDLTGLKPGTEYNVTIQGVKGGFPSQPLHAHFTT |
|  |  | 30.6 | CD71-binding FN3 domain of SEQ ID NO: 479 (designed binder) MLPAPKNLVVSRVTEDSARLSWTAPDAAFDSFFIGYLEPQPPGEAINLWVPGSERSYDLTGLKPGTEYNVTIQGVKGGFPSTPLFAGFTT |
| 2.22e+06 | 77 |  | CD71-binding FN3 domain SEQ ID NO: 310 (designed binder) MSLPAPKNLVVSRVTEDSARLSWTAPDAAFDSFEIDYGEYSQAGEAIGLLVPGSERSYDLTGLKPGTEYAVWIGGVKGGFFSTPLEADFTT |
| 3.4e+06 | 178 |  | CD71-binding FN3 domain SEQ ID NO: 241 (designed binder) MSLPAPKNLVVSRVTEDSARLSWTAPDAAFDSFMIAYDEFIVWGEAVVLTVPGSERSYDLTGLKPGTEYLVEILGVKGGTISGPLSAIFTT |
| 5.98e+06 | 138 |  | CD71-binding FN3 domain SEQ ID NO: 290 (designed binder) MSLPAPKNLVVSRVTEDSARLSWTAPDAAFDSFFIGYLEPQPPGEAIHLYVPGSERSYDLTGLKPGTEYNVTIQGVKGGFPSEPLVATFTT |
| 2.78e+06 | 355 |  | CD71-binding FN3 domain SEQ ID NO: 243 (designed binder) MSLPAPKNLVVSRVTEDSARLSWTAPDAAFDSFFIGYLEPQPPGEAIHLYVPGSERSYDLTGLKPGTEYNVTIQGVKGGEWSAPLSAIFTT |
| 5.41e+06 | 150 |  | CD71-binding FN3 domain SEQ ID NO: 266 (designed binder) MSLPAPKNLVVSRVTEDSARLSWTAPDAAFDSFFIGYLEPQPPGEAIYLLVPGSERSYDLTGLKPGTEYNVTIQGVKGGFPSLPLVATFTT |
| 6.2e+06 | 438 |  | CD71-binding FN3 domain SEQ ID NO: 295 (designed binder) MSLPAPKNLVVSRVTEDSARLSWTAPDAAFDSFFIGYLEPQPPGEAIDLYVPGSERSYDLTGLKPGTEYNVTIQGVKGGFPSEPLVATFTT |
| 5.32e+06 | 146 |  | CD71-binding FN3 domain SEQ ID NO: 333 (designed binder) MSLPAPENLVVSRVTEDSARLSWTAPDAAFDSFFIGYLEPQPPGEAIALYVPGSERSYDLTGLKPGTEYNVTIQGVKGGFPSLPLVATFTT |

| RLU [1] [RLU] | hCD71:HSA [2] | CTG EC50 (CellTiter-Glo luminescent assay, SKBR3 cells, 72 h) [3] [nM] | Binder |
| --- | --- | --- | --- |
| 5.77e+06 | 508 |  | CD71-binding FN3 domain SEQ ID NO: 264 (designed binder) MSLPAPKNLVVSRVTEDSARLSWTAPDAAFDSFFIGYLEPQPPGEAIALYVPGSERSYDLTGLKPGTEYNVTIQGVKGGFPSEPLVVHFTT |
| 6.42e+06 | 683 |  | CD71-binding FN3 domain SEQ ID NO: 234 (designed binder) MSLPAPKNLVVSRVTEDSARLSWTAPDAAFDSFFIGYLEPQPPGEAIALYVPGSERSYDLTGLKPGTEYNVTIQGVKGGFPSEPLVAHFTT |
| 3.66e+06 | 449 |  | CD71-binding FN3 domain SEQ ID NO: 279 (designed binder) MSLPAPKNLVVSRVTEDSARLSWTAPDAAFDSFFIGYLEPQPPGEAIHLYVPGSERSYDLTGLKPGTEYNVTIQGVKGGNWSAPLSAIFTT |
| 4.66e+06 | 524 |  | CD71-binding FN3 domain SEQ ID NO: 331 (designed binder) MSLPAPKNLVVSRVTEDSARLSWTAPDAAFDSFFIGYLEPQPPGEAIHLYVPGSERSYDLTGLKPGTEYNVTIQGVKVGFPSEPLIANFTT |
| 4.77e+06 | 212 |  | CD71-binding FN3 domain SEQ ID NO: 258 (designed binder) MSLPAPKNLVVSRVTEDSARLSWTAPDAAFDSFFIGYLEPQPPGEAIVLGVPGSERSYDLTGLKPGTEYNVTIQGVKGGFPSDPLVASFTT |
| 6.23e+06 | 561 |  | CD71-binding FN3 domain SEQ ID NO: 293 (designed binder) MSLPAPKNLVVSRVTEDSARLSWTAPDAAFDSFFIGYLEPQPPGEAIDLYVPGSERSYDLTGLKPGTEYNVTIQGVKGGFPSHPLVATFTT |
| 5.66e+06 | 409 |  | CD71-binding FN3 domain SEQ ID NO: 265 (designed binder) MSLPAPKNLVVSRVTEDSARLSWTAPDAAFDSFFIGYLEPQPPGEAISLYVPGSERSYDLTGLKPGTEYNVTIQGVKGGFPSDPLVAHFTT |
| 6.78e+06 | 529 |  | CD71-binding FN3 domain SEQ ID NO: 262 (designed binder) MSLPAPKNLVVSRVTEDSARLSWTAPDAAFDSFFIGYLEPQPPGEVIHLFVPGSERSYDLTGLKPGTEYNVTIQGVKGGFPSDPLVASFTT |
| 5.5e+06 | 65 |  | CD71-binding FN3 domain SEQ ID NO: 270 (designed binder) MSLPAPKNLVVSRVTEDSARLSWTAPDAAFDSFFIGYLEPQPPGEAIHLYVPGSERSYDLTGLKPGTEYNVTIQGVKGGFPSEPLIANSTT |
| 6.48e+06 | 215 |  | CD71-binding FN3 domain SEQ ID NO: 294 (designed binder) MSLPAPKNLVVSRVTEDSARLSWTAPDAAFDSFFIGYLEPQPLGEAIHLFVPGSERSYDLTGLKPGTEYNVTIQGVKGGFPSEPLIASFTT |
| 6.37e+06 | 380 |  | CD71-binding FN3 domain SEQ ID NO: 281 (designed binder) MSLPAPKNLVVSRVTEDSARLSWTAPDAAFDSFFIGYLEPQPPGEAIALYVPGSERSYDLTGLKPGTEYNVTIQGVKGGFPSEPLIANFTT |
| 3.53e+06 | 324 |  | CD71-binding FN3 domain SEQ ID NO: 253 (designed binder) MSLPAPKNLVVSRVTEDSARLSWTAPDAAFDSFDINYWENESGGEAIALFVPGSERSYDLTGLKPGTEYWVSIGGVKGGRFSEPLYARFTT |
| 2.66e+06 | 143 |  | CD71-binding FN3 domain SEQ ID NO: 327 (designed binder) MSLPAPKNLVVSRVTEDSARLSWTAPDAAFDSFEIGYWENAYKGEAIVLTVPGSERSYDLTGLKPGTEYWVQIGGVKGGNWSAPLSAIFTT |
| 2.54e+06 | 54 |  | CD71-binding FN3 domain SEQ ID NO: 330 (designed binder) MSLPAPKNLVVSRVTEDSARLSWTAPDAAFDSFEIGYFENLYLGEAIVLTVPGSERSYDLTGLKPGTEYWVQIGGVKGGNWSAPLSAIVTT |
| 3.28e+06 | 90 |  | CD71-binding FN3 domain SEQ ID NO: 329 (designed binder) MSLPAPKNLVVSRVTEDSARLSWTAPDAAFDSFDIGYFEATYYGEAIVLTVPGSERSYDLTGLKPGTEYRVWIGGVKGGYYSNPLSAIFTT |
| 2.18e+06 | 25 |  | CD71-binding FN3 domain SEQ ID NO: 328 (designed binder) MSLPAPKNLVVSRVTEDSARLSWTAPDAAFDSFEIGYFGNLYLGEAIVLTVPGSERSYDLTGLKPGTEYWVQIGGVKGGNWSAPLSAIFTT |
| 3.77e+06 | 300 |  | CD71-binding FN3 domain SEQ ID NO: 259 (designed binder) MSLPAPKNLVVSRVTEDSARLSWTAPDAAFDSFYIAYAEPRPDGEAILLEVPGSERSYDLTGLKPGTEYSVLIHGVKGGLLSSPLSATFTT |
| 3.43e+06 | 535 |  | CD71-binding FN3 domain SEQ ID NO: 261 (designed binder) MSLPAPKNLVVSRVTEDSARLSWTAPDAAFDSFYIAYAEPRPDGEAILLWVPGSERSYDLTGLKPGTEYSVLIHGVKGGLLSSPLHAYFTT |
